Data as given in publication doi:10.1101/2021.04.21.440798 (bioRxiv, 2021).

Biological target: GFP-T6BP (TAX1BP1 / TRAF6-Binding Protein fused to GFP) (UniProt Q86VP1 1-789)
Test: co-IP

GFP-T6BP (TAX1BP1 / TRAF6-Binding Protein fused to GFP), sequence (Q86VP1 whole entry, the tested form may be a part): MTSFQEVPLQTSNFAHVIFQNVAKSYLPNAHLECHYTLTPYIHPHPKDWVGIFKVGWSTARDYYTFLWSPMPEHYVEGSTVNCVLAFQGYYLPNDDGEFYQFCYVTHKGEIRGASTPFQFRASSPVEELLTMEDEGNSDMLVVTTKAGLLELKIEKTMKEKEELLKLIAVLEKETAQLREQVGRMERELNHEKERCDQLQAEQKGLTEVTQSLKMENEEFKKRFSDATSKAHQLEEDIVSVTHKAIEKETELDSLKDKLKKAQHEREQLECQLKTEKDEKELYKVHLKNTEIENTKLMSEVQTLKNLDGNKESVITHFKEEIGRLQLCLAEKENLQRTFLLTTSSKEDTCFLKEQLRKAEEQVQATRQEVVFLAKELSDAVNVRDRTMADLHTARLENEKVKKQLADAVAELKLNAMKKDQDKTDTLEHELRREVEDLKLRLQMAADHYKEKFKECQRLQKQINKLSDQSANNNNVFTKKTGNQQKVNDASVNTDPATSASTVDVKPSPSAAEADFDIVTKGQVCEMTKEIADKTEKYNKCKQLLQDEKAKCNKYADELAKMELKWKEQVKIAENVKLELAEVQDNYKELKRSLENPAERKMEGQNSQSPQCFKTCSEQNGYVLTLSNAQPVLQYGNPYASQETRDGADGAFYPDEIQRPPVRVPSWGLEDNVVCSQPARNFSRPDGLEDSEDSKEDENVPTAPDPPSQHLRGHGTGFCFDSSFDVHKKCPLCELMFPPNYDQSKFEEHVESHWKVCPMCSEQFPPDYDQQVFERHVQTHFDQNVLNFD

fold enrichment over the GFP control: 3 fold
B1: Calnexin (CANX), endogenous (natural protein)
chain: HDGHDDDVIDIEDDLDDVIEEVEDSKPDTTAPPSSPKVTYKAPVPTGEVYFADSFDRGTLSGWILSKAKKDDTDDEIAKYDGKWEVEEMKESKLPGDKGLVLMSRAKHHAISAKLNKPFLFDTKPLIVQYEVNFQNGIECGGAYVKLLSKTPELNLDQFHDKTPYTIMFGPDKCGEDYKLHFIFRHKNPKTGIYEEKHAKRPDADLKTYFTDKKTHLYTLILNPDNSFEILVDQSVVNSGNLLNDMTPPVNPSREIEDPEDRKPEDWDERPKIPDPEAVKPDDWDEDAPAKIPDEEATKPEGWLDDEPEYVPDPDAEKPEDWDEDMDGEWEAPQIANPRCESAPGCGVWQRPVIDNPNYKGKWKPPMIDNPSYQGIWKPRKIPNPDFFEDLEPFRMTPFSAIGLELWSMTSDIFFDNFIICADRRIVDDWANDGWGLKKAADGAAEPGVVGQMIEAAEERPWLWVVYILTVALPVFLVILFCCSGKKQTSGMEYKKTDAPQPDVKEEEEEKEEEKDKGDEEEEGEEKLEEKQKSDAEEDGGTVSQEEEDRKPKAEEDEILNRSPRNRKPRRE
